Here are results for three molecules from US20210032360A1 (BERLIN CHEMIE, published 2021).

For this assay, the target named is T1, Bone marrow stromal antigen 1 (BST1), human, on the cell surface (human, UniProt Q10588 33-293).
T1 construct: This is endogenous BST1 on A549, H226 and U937 cells and on primary MDS bone marrow cells; also called ADP-ribosyl cyclase 2; CD157
T1 sequence: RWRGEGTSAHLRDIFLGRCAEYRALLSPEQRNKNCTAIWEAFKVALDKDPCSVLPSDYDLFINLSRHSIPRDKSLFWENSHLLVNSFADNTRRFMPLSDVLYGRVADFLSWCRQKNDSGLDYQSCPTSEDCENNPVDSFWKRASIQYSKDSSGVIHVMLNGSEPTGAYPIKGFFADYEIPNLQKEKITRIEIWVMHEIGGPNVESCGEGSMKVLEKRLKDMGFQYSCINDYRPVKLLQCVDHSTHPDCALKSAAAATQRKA
Briefly: flow cytometry on BST1-expressing H226 and A549 cells, PE-labelled secondary antibody, geometric mean fluorescence (PE GMFI); antibody concentration not given. Here is the method:
The specificity of antibodies against the BST1 selected in Example 2 was tested by flow cytometry. To test the ability of the antibodies to bind to the cell surface BST1 protein, the antibodies were incubated with the BST1-expressing cells, A549 and H226, from human lung adenocarcinoma and human lung squamous carcinoma, respectively. Cells were washed in FACS buffer (DPBS, 2% FBS), centrifuged and resuspended in 100 μl of the diluted primary BST1 antibody (also diluted in FACS buffer). The antibody-A549 complex was incubated on ice for 60 min and then washed twice with FACS buffer as described above. The cell-antibody pellet was resuspended in 100 μl of the diluted secondary antibody (also diluted in FACS buffer) and incubated on ice for 60 min on ice. The pellet was washed as before and resuspended in 200 μl FACS buffer. The samples were loaded onto the BD FACScanto II flow sytometer and the data analyzed using the BD FACSdiva software.
For orientation: A flow cytometer gives signals particle by particle.

B1: BST1_A3 (Fab, V domains shown)
VH: QVQLQQSRAELVMPGASVKMSCKTSGYTFSDYWVHWVRQRPGQGLEWIGAIDGSDTFNDYSQKFKGRATLTVDESSSTVYMQLSSLTSEDSAVYYCARGGLLQYWGQGTTLTVSS
VL: DIQLTQSPASLSASVGETVTITCRASENIYSYLAWYQQKQGKSPQLLVYNTKTLGEGVPSRFSGSGSGTQFSLKINSLQPEDFGSYYCQHHYGTPFTFGSGTKLEIKR
notes: they are whole murine Fab chains: bacterial leader, variable domain and constant domain, with a His tag on the heavy chain
Take B1: the binding result is listed as “binds”.

B2: BST1_A1 (Fab, V domains shown)
VH: QVKLQQSGAELVRPGSSVKISCKASGYAFSNSWINWVKQRPGQGLEWIGQIYPGDYDTNYNGKFKGKATLTADYSSSTAYMQLNSLTSEDSAVYFCARGGSIYYGNLGFFDVWGAGTTVTVSS
VL: EMVLTQSPAIMSTSLGERVTMTCTASSRVSSSYLHWYQQKPGSSPKLWIYSTSNLASGVPARFSGSGSGTSYSLTISSMEAEDAATYYCHQYHRSPYTFGGGTKLEIKR
notes: also called anti-BST1 monoclonal antibody BST1_A1
Consider B2, for which the binding result is recorded as “binds”.

B3: BST1_A2 (Fab, V domains shown)
VH: QAYLQQSGPELVKAGASVKMSCKASGYSFIEYTINWVKQSHGKSLEWIGNIDPYYGTTYYNQMFTGKATLTVDQSSNTAYMQLKSLTSEDSAVYFCARGSAWFPYWGQGTLVTVSA
VL: DIVMSQSPAIMSASPGEKVTMTCSASSSVTYMYWYQQKPGSSPRLLIYDTSNLASGVPVRFSGSGSGTSYSLTISRMEAEDTATYYCQQWSNYPLTFGAGTKLELKR
notes: they are whole murine Fab chains: bacterial leader, variable domain and constant domain, with a His tag on the heavy chain; also called anti-BST1 monoclonal antibody BST1_A2
With B3, the binding result is “binds”.
